# Experimental data from publication PMC3750173, “Ferredoxin Competes with Bacterial Frataxin in Binding to the Desulfurase IscS*^([image sbox.jpg])” (The Journal of Biological Chemistry, 2013).
# Substitutions are numbered along the chain they refer to. Numbers in names are those of the source.
# B1: CyaY (bacterial ortholog of frataxin) (natural protein, E. coli, UniProt P27838 1-106, looked up)
# chain: MNDSEFHRLADQLWLTIEERLDDWDGDSDIDCEINGGVLTITFENGSKIIINRQEPLHQVWLATKQGGYHFDLKGDEWICDRSGETFWDLLEQAATQQAGETVSFR
# notes: CyaY, the bacterial ortholog of frataxin, E. coli; also called bacterial frataxin
# B2: holo-Fdx (cluster-loaded E. coli ferredoxin) (natural protein)
# chain: MPKIVILPHQDLCPDGAVLEANSGETILDAALRNGIEIEHACEKSCACTTCHCIVREGFDSLPESSEQEDDMLDKAWGLEPESRLSCQARVTDEDLVVEIPRYTINHAREH
# modifications: [2Fe-2S] cluster bound (holo); biotinylated for BLI (site not stated); 15N or 15N/2H labelled for NMR
# notes: ferredoxin (Fdx) of the isc operon, E. coli; fdx amplified from E. coli genomic DNA into a modified pET-24 vector; The same construct was used 15N- or 15N/2H-labelled in NMR and biotinylated on streptavidin biosensors in BLI; residues left after TEV cleavage and the NcoI site are not described; also called [15N]holo-Fdx; [15N/2H]holo-Fdx; source: E. coli, purified (nickel-nitrilotriacetic …)
# B3: holo-Fdx_D11K (natural protein, E. coli)
# chain: B2 chain with D11K
# modifications: [2Fe-2S] cluster bound (holo); 15N labelled
# notes: ferredoxin (Fdx) of the isc operon, E. coli; mutant of the pET-24 construct; source: E. coli, purified (nickel-nitrilotriacetic acid-agarose, TEV cleavage, Superdex G75, MonoQ); not shown: GST, N-terminal, cleaved; His tag, N-terminal, cleaved
# B4: holo-Fdx_E57K/D60K (natural protein, E. coli)
# chain: B2 chain with E57K, D60K
# modifications: [2Fe-2S] cluster bound (holo); 15N labelled
# notes: as for B3
# How the values were obtained:
# [1] = biological target: holo-Fdx (cluster-loaded E. coli ferredoxin) (E. coli) (UniProt P0A9R4); assay: SAXS; solutions of 2.5-5.0 mg/ml at 10 °C; IscS alone and holo-Fdx·IscS complex
# [2] = biological target: holo-Fdx (cluster-loaded E. coli ferredoxin) (E. coli) (UniProt P0A9R4); assay: BLI; biotinylated holo-Fdx on streptavidin biosensors, IscS 0-60 μM; 20 mM HEPES pH 7.5, 150 mM NaCl, 2 mM TCEP, 0.5 mg/ml BSA, 25 °C; Kd from the amplitude at equilibrium
# [3] = biological target: T1, IscS (E. coli desulfurase), wild type (E. coli, UniProt P0A6B7 1-404); assay: NMR titration; competition: holo-Fdx·IscS sample (with IscU added before) titrated with CyaY up to 3 molar excess over holo-Fdx; 20 mM Tris, 150 mM NaCl, 20 mM TCEP, pH 8, 298 K; conditions: both partners purified
# T1 construct: cysteine desulfurase IscS, E. coli; construct pET-11 IscS (EMBL-Hamburg); Dimer by SAXS; also called desulfurase IscS
# IscS_I314E/M315E = biological target: T2, IscS_I314E/M315E (E. coli, UniProt P0A6B7 1-404, I314E | M315E); assay: NMR titration; 15N-SOFAST HMQC of [15N]- or [15N/2H]Fdx or Fdx mutants titrated with unlabelled IscS or IscS mutants; 20 mM Tris, 150 mM NaCl, 20 mM TCEP, pH 8, 298 K; conditions: both partners purified
# T2 construct: cysteine desulfurase IscS, E. coli; site-directed mutant of pET-11 IscS
# IscS_D346K/E347K = biological target: T3, IscS_D346K/E347K (E. coli, UniProt P0A6B7 1-404, D346K | E347K); assay: as above; conditions: both partners purified
# T3 construct: cysteine desulfurase IscS, E. coli; site-directed mutant of pET-11 IscS
# IscS_R112E/R116E = biological target: T4, IscS_R112E/R116E (E. coli, UniProt P0A6B7 1-404, R112E | R116E); assay: as above; conditions: both partners purified
# T4 construct: cysteine desulfurase IscS, E. coli; site-directed mutant of pET-11 IscS; designed after the first round of docking
# [4] = biological target: T1, IscS (E. coli desulfurase), wild type; assay: as above; conditions: both partners purified
molecule,measurement,setting,value
"IscS (E. coli desulfurase), wild type (from UniProt P0A6B7 1-404) (enzyme)",percent of free components,[1],10%
same,percent of the complex (OLIGOMER fit),[1],80%
same,stoichiometry N (IscS:Fdx (2:2)),[1],1
same,Kd,[2],1.5 µM
B1,binding result,[3],binds
B2,binding result,IscS_I314E/M315E,binds
same,binding result,IscS_D346K/E347K,binds
same,binding result,IscS_R112E/R116E,binds
B3,binding result,[4],binds
B4,binding result,[4],binds
